What was measured:
Assay type in all cases: biochemical
[1] = HPLC screening of double-mutant libraries for variants able to glucosylate D-GlcpNAc; conditions: α-D-Glcp-(1→4)-α-D-GlcpNAc (ED) from sucrose and D-GlcpNAc, microplate format
Procedure: The protocol was established to enable the rapid identification of clones for which D-GlcpNAc glucosylation was improved. To obtain higher amounts of enzymes and facilitate detection of glucosylated compounds upon HPLC screening, mutants were produced in 96-DeepWell Format plates. Storage microplates containing monomutants were thawed and replicated to inoculate a starter culture in 96-well microplates containing, in each well, 150 μL LB medium supplemented with ampicillin (100 μg/mL). After growth for 24 h at 30° C. under agitation (200 rpm), plates were duplicated into 96-Deep Well plates containing, in each well, 1.1 mL LB medium supplemented with ampicillin (100 μg/mL) and IPTG (1 mM) to induce GST-AS expression. Cultures were then grown for 24 h at 30° C. under agitation (200 rpm). Plates were centrifuged (20 min, 3000 g, 4° C.) and the supernatant was removed. The cell pellet was resuspended in 200 μL of lysozyme (0.5 mg/mL), followed by freezing at −80° C. for 8 to 12 h. After thawing at room temperature, 100 μL of sucrose and 100 μL of acceptor (each at a final concentration of 73 mM) were added to each well. Enzymatic reaction was incubated at 30° C. during 24 h under agitation. The DeepWell plates were then centrifuged (20 min, 3000 g, 4° C.) and 300 μL of the supernatant was transferred to a filter micro-plate (PVDF 0.2 μm) to be clarified. Supernatant filtration was carried out by centrifugation of the filter micro-plate (5 min, 2000 g, 4° C.) into a novel microplate for screening.
The method for the expression of the mutant libraries is described in Example 1-1.
Acceptor reaction products were analyzed by HPLC analysis using a C18-AQ column (Bischoff C18, 125×4 mm, 3 μm) kept at room temperature and eluted with 0.6 mL/min of ultra-pure water to detect α-D-Glcp-(1→4)-α-D-GlcpNAc formation (analysis time: 7 min). To evaluate the efficiency of the glucosylation reaction, it was carried out complementary HPLC analyses with a Biorad HPX-87K Carbohydrate Analysis column (maintained at 65° C., and eluted at a flow rate of 0.6 mL/min with ultra-pure water). By this way, it was possible to measure sucrose consumption by RI detection and concomitant α-D-Glcp-(1-4)-α-D-GlcpNAc formation by UV220 nm and determine mutant ability to synthesize the desired disaccharide α-D-Glcp-(1→4)-α-D-GlcpNAc (i.e., % Glucosyl units transferred onto acceptor derivatives=[Glucosyl units transferred onto acceptor derivatives]/[Glucosyl units transferred from initial sucrose]×100)
All clones producing sucrose-utilizing variants were then picked and cultured in 96-well microplates. Following cell lysis, the acceptor reaction in the presence of D-GlcpNAc was then carried out in microplate format. HLPC analysis time for each clone was reduced to 7 min for detection of α-D-Glcp-(1→4)-α-D-GlcpNAc. When disaccharide formation was detected, complementary analyses were performed to determine sucrose consumption and disaccharide formation with more accuracy in order to calculate the glucosylation yield.

[2] = Kinetic parameters towards sucrose donor; conditions: for V250mM (initial rate of sucrose consumption): 250 mM sucrose; for behaviour (at high concentration): sucrose donor alone
Procedure: Enzyme assays were carried out in a total volume of 2 mL containing pure enzyme (0.073 mg, 0.153 mg and 0.092 mg when using A289P-F290C, A289P-F2901 and A289P-F290L, respectively).
Kinetic studies of AS variants were performed in the presence of sucrose (0-500 mM). At regular time intervals (2-5 min), aliquots (200 μL) were removed, heated (95° C., 2 min) and centrifuged (18000 g, 5 min) All the samples were filtered on a 0.22 μm membrane and analyzed using HPLC material previously described. The initial rate of sucrose consumed, corresponding to the initial rate of fructose released, was expressed in mole of fructose released per minute and per gram of enzyme. The kinetic parameters kcat and Km were calculated using Eadie-Hofstee plot.

[3] = Kinetic parameters towards α-D-GlcpNAc-OAll acceptor; conditions: 250 mM for both sucrose and α-D-GlcpNAc-OAll
Procedure: Enzyme assays were carried out in a total volume of 2 mL containing pure enzyme (0.037 mg, 0.076 mg and 0.046 mg when using A289P-F290C, A289P-F2901 and A289P-F290L, respectively).
The kcat/Km (α-D-GlcpNAc-OAll) value was calculated from the initial rate of formation of desired disaccharide (α-D-Glcp-(1→4)-α-D-GlcpNAc-OAll), corresponding to the initial rate of α-D-GlcpNAc-OAll consumed. As saturation was not achieved with the mutants, efficiency was calculated by linear regression analysis of the velocity versus substrate concentration plot.

B1: A289P-F290C: double mutant A289P, F290C of N. polysaccharea amylosucrase (protein)
chain: SPNSQYLKTRILDIYTPEQRAGIEKSEDWRQFSRRMDTHFPKLMNELDSVYGNNEALLPMLEMLLAQAWQSYSQRNSSLKDIDIARENNPDWILSNKQVGGVCYVDLFAGDLKGLKDKIPYFQELGLTYLHLMPLFKCPEGKSDGGYAVSSYRDVNPALGTIGDLREVIAALHEAGISAVVDFIFNHTSNEHEWAQRCAAGDPLFDNFYYIFPDRRMPDQYDRTLREIFPDQHPGGFSQLEDGRWVWTTFNSFQWDLNYSNPWVFRAMAGEMLFLANLGVDILRMDAVPCIWKQMGTSCENLPQAHALIRAFNAVMRIAAPAVFFKSEAIVHPDQVVQYIGQDECQIGYNPLQMALLWNTLATREVNLLHQALTYRHNLPEHTAWVNYVRSHDDIGWTFADEDAAYLGISGYDHRQFLNRFFVNRFDGSFARGVPFQYNPSTGDCRVSGTAAALVGLAQDDPHAVDRIKLLYSIALSTGGLPLIYLGDEVGTLNDDDWSQDSNKSDDSRWAHRPRYNEALYAQRNDPSTAAGQIYQDLRHMIAVRQSNPRFDGGRLVTFNTNNKHIIGYIRNNALLAFGNFSEYPQTVTAHTLQAMPFKAHDLIGGKTVSLNQDLTLQPYQVMWLEIA
[1]
  Glusosylation Yield to synthesize ED: 100%
[2]
  V250mM (initial rate of sucrose consumption): 2186 µmol/min/g
  behaviour (at high concentration): saturation
[3]
  V250mM (initial rate of acceptor consumption): 50 000 μmol/min/g

B2: A289P-F290I: double mutant A289P, F290I of N. polysaccharea amylosucrase (protein)
chain: SPNSQYLKTRILDIYTPEQRAGIEKSEDWRQFSRRMDTHFPKLMNELDSVYGNNEALLPMLEMLLAQAWQSYSQRNSSLKDIDIARENNPDWILSNKQVGGVCYVDLFAGDLKGLKDKIPYFQELGLTYLHLMPLFKCPEGKSDGGYAVSSYRDVNPALGTIGDLREVIAALHEAGISAVVDFIFNHTSNEHEWAQRCAAGDPLFDNFYYIFPDRRMPDQYDRTLREIFPDQHPGGFSQLEDGRWVWTTFNSFQWDLNYSNPWVFRAMAGEMLFLANLGVDILRMDAVPIIWKQMGTSCENLPQAHALIRAFNAVMRIAAPAVFFKSEAIVHPDQVVQYIGQDECQIGYNPLQMALLWNTLATREVNLLHQALTYRHNLPEHTAWVNYVRSHDDIGWTFADEDAAYLGISGYDHRQFLNRFFVNRFDGSFARGVPFQYNPSTGDCRVSGTAAALVGLAQDDPHAVDRIKLLYSIALSTGGLPLIYLGDEVGTLNDDDWSQDSNKSDDSRWAHRPRYNEALYAQRNDPSTAAGQIYQDLRHMIAVRQSNPRFDGGRLVTFNTNNKHIIGYIRNNALLAFGNFSEYPQTVTAHTLQAMPFKAHDLIGGKTVSLNQDLTLQPYQVMWLEIA
[1]
  Glusosylation Yield to synthesize ED: 100%
[2]
  V250mM (initial rate of sucrose consumption): 946 µmol/min/g
  behaviour (at high concentration): saturation
[3]
  V250mM (initial rate of acceptor consumption): 51 400 μmol/min/g

B3: A289P-F290L: double mutant A289P, F290L of N. polysaccharea amylosucrase (protein)
chain: SPNSQYLKTRILDIYTPEQRAGIEKSEDWRQFSRRMDTHFPKLMNELDSVYGNNEALLPMLEMLLAQAWQSYSQRNSSLKDIDIARENNPDWILSNKQVGGVCYVDLFAGDLKGLKDKIPYFQELGLTYLHLMPLFKCPEGKSDGGYAVSSYRDVNPALGTIGDLREVIAALHEAGISAVVDFIFNHTSNEHEWAQRCAAGDPLFDNFYYIFPDRRMPDQYDRTLREIFPDQHPGGFSQLEDGRWVWTTFNSFQWDLNYSNPWVFRAMAGEMLFLANLGVDILRMDAVPLIWKQMGTSCENLPQAHALIRAFNAVMRIAAPAVFFKSEAIVHPDQVVQYIGQDECQIGYNPLQMALLWNTLATREVNLLHQALTYRHNLPEHTAWVNYVRSHDDIGWTFADEDAAYLGISGYDHRQFLNRFFVNRFDGSFARGVPFQYNPSTGDCRVSGTAAALVGLAQDDPHAVDRIKLLYSIALSTGGLPLIYLGDEVGTLNDDDWSQDSNKSDDSRWAHRPRYNEALYAQRNDPSTAAGQIYQDLRHMIAVRQSNPRFDGGRLVTFNTNNKHIIGYIRNNALLAFGNFSEYPQTVTAHTLQAMPFKAHDLIGGKTVSLNQDLTLQPYQVMWLEIA
[1]
  Glusosylation Yield to synthesize ED: 100%
[2]
  V250mM (initial rate of sucrose consumption): 1717 µmol/min/g
  behaviour (at high concentration): saturation
[3]
  V250mM (initial rate of acceptor consumption): 67 300 μmol/min/g
